Results on 3 substances are retold here after PMC9507130.

In this assay the target is Vin1^1-116-mScI (UniProt P36158). Description: subcellular recruitment assay (fluorescence microscopy, puncta quantification). Conditions: vrl1 vin1Δ cells; over-expressed Vrl1(1-703)YPE chimera; pVIN1(1-116)-mScI; n=3, cells/strain/replicate ≥863; parent: est. 0.82; read off a plot.
Chain of UniProt P36158 (P36158 1-116): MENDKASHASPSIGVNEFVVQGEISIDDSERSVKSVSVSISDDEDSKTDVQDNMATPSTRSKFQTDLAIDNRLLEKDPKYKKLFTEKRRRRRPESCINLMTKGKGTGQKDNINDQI

Regarding “Vrl1(1-703)^YPE (from UniProt P38815) E510R”, the other: Average Bright Vin1(1-116)-mScI Puncta Per Cell (puncta per cell) was 0.04.

For “Vrl1(1-703)^YPE (from UniProt P38815) D511K”, the other: Average Bright Vin1(1-116)-mScI Puncta Per Cell (puncta per cell) is 0.14.

In the case of “Vrl1(1-703)^YPE (from UniProt P38815) E504A; E510A; D511A; N546A; E551A”, the other: Average Bright Vin1(1-116)-mScI Puncta Per Cell (puncta per cell) was 0.075.
